Experimental data: PMC11643043

Molecular target: soluble CD20^Avi
Assay: SEC-MALS

stoichiometry N: 2
Substance: soluble CD20^Avi
